The results in this text go back to the supplement of paper PMC9732359.

This series is described as follows: protein stability index of a GFP-peptide fusion (yeast GPS) (PSI 1-4); higher = more stable; sorted into four equal gates, so the index is relative within each strain. In a few lines:
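Each library plasmid carries Cherry plus GFP with a tiled 17-residue yeast protein peptide fused downstream, and the pooled library was carried in yeast. Mid-log cultures in leucine-free medium were sorted into four equal gates by GFP/Cherry ratio. Reads from Illumina sequencing of PCR-amplified plasmids from each gate were assigned to strains by barcodes. Per peptide, the protein stability index was computed as the summed products of gate read frequency and gate number.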

± gives the uncertainty stated by the source.

In the case of QTVRLIKDLQRAINKVL [SIR2], the protein stability index runs as follows: (doa10∆) 2.13 ± 0.057; (pdr5∆) 2.03 ± 0.061; (san1∆) 1.22 ± 0.11; (ubr1∆) 2 ± 0.039.

With YFKMFPASKHDKEVVYF [RPC34], the protein stability index reads like this: (doa10∆) 2.72 ± 0.16; (pdr5∆) 3.2 ± 0.093; (san1∆) 3.26 ± 0.075; (ubr1∆) 3.4 ± 0.19.

Regarding KKRLMDIDDELNELETL [SMC2], the protein stability index was found to be 3.05 ± 0.058 (doa10∆), 3.17 ± 0.067 (pdr5∆), 3 ± 0.034 (san1∆) and 3.37 ± 0.035 (ubr1∆).

For the sequence KNLKPQEQLKNVKNDVS [YIL149C/MLP2], the protein stability index runs as follows: (doa10∆) 3.23 ± 0.089; (pdr5∆) 3.21 ± 0.067; (san1∆) 2.51 ± 0.1; (ubr1∆) 3.01 ± 0.096.

Take EQWLRQFEVSDDEKNDK [SNF2]: the protein stability index is 3.41 ± 0.065 (doa10∆), 3.21 ± 0.059 (pdr5∆), 3.17 ± 0.053 (san1∆) and 3.09 ± 0.046 (ubr1∆).

As for PSEIPDAHKAEQEDIIE [SWI3], the protein stability index reads like this: (pdr5∆) 3.29 ± 0.14; (san1∆) 3.46 ± 0.12; (ubr1∆) 3.05 ± 0.17.

Take IKNIGKSLKNNFYRPLL [YML103C/NUP188]: the protein stability index reads like this: (doa10∆) 2.6 ± 0.08; (pdr5∆) 2.62 ± 0.1; (san1∆) 2.7 ± 0.079; (ubr1∆) 2.77 ± 0.078.

Take KKICNHPFVFEEVEDQI [SNF2]: the protein stability index is 3.17 ± 0.064 (doa10∆), 2.89 ± 0.055 (pdr5∆), 2.94 ± 0.06 (san1∆) and 2.86 ± 0.045 (ubr1∆).

In the case of NINNSSVAEKEEIRSQI [SWI3], the protein stability index (doa10∆) is 2.64 ± 0.072, the protein stability index (pdr5∆) amounted to 2.19 ± 0.077, the protein stability index (san1∆) stood at 2.2 ± 0.075 and the protein stability index (ubr1∆) is 2.51 ± 0.059.

Turning to KEEFIMMVNISVLISIP [PCI8], the protein stability index is, setting by setting: (doa10∆) 1.43 ± 0.037; (pdr5∆) 1.33 ± 0.033; (san1∆) 1.57 ± 0.074; (ubr1∆) 1.36 ± 0.031.

PEMSNLYRLSTPLRDEV [PRP8]: the protein stability index (doa10∆) came to 2.76 ± 0.067, the protein stability index (pdr5∆) is 2.76 ± 0.047, the protein stability index (san1∆) was 2.56 ± 0.044 and the protein stability index (ubr1∆) turned out to be 2.75 ± 0.06.

Sequence KREASRGFFDILSLATE [MCD1] had a protein stability index (doa10∆) of 3.08 ± 0.083, a protein stability index (pdr5∆) of 3.21 ± 0.06, a protein stability index (san1∆) of 2.91 ± 0.063 and a protein stability index (ubr1∆) of 3.11 ± 0.05.

With QDSIDISIKDNKLVMKS [GAL11], the protein stability index (doa10∆) worked out at 2.5 ± 0.064, the protein stability index (pdr5∆) turned out to be 2.77 ± 0.058, the protein stability index (san1∆) stood at 3.21 ± 0.053 and the protein stability index (ubr1∆) was 2.05 ± 0.068.

As to ALLNFVLPKIFNSVKSF [SNF2], the protein stability index worked out at 2.44 ± 0.094 (doa10∆), 1.71 ± 0.066 (pdr5∆), 1.98 ± 0.11 (san1∆) and 1.33 ± 0.043 (ubr1∆).

As for KSVRILKNKAEYLKNCP [RPC40], the protein stability index turned out to be 3.13 ± 0.066 (doa10∆), 3.19 ± 0.064 (pdr5∆), 3.12 ± 0.049 (san1∆) and 3.15 ± 0.046 (ubr1∆).

Take NVSFVLPDEKSDAMSID [YCG1]: the protein stability index came out at 3.31 ± 0.072 (doa10∆), 3.3 ± 0.051 (pdr5∆), 3.25 ± 0.052 (san1∆) and 3.21 ± 0.067 (ubr1∆).

For SLKCTDPYELKGEVVLV [ITC1], the protein stability index by setting is: (doa10∆) 2.59 ± 0.2; (pdr5∆) 3.1 ± 0.24; (san1∆) 2.44 ± 0.2; (ubr1∆) 2.96 ± 0.13.

As for LKMQQQQQQQQQQQQQQ [GAL11], the protein stability index runs as follows: (doa10∆) 2.69 ± 0.084; (pdr5∆) 2.89 ± 0.073; (san1∆) 2.62 ± 0.073; (ubr1∆) 2.64 ± 0.067.

FEKVGSHLYKARLDGHD [RPN14]: the protein stability index was determined as 2.92 ± 0.26 (doa10∆), 3.51 ± 0.19 (pdr5∆) and 3.31 ± 0.14 (ubr1∆).

On to TGSLMGGNSTQNTSNMN [YGR119C/NUP57], for which the protein stability index is, setting by setting: (doa10∆) 3.19 ± 0.076; (pdr5∆) 3.24 ± 0.064; (san1∆) 3.07 ± 0.052; (ubr1∆) 3.18 ± 0.048.

Take ERGLKVKEYQLRDRNFS [RPL11A]: under “pdr5∆”, the protein stability index was 2.63 ± 0.2.

For KRCVGVILGDANSSTIR [RPN8], the protein stability index (doa10∆) is 2.85 ± 0.042, the protein stability index (pdr5∆) amounted to 2.77 ± 0.051, the protein stability index (san1∆) is 2.82 ± 0.061 and the protein stability index (ubr1∆) came to 2.94 ± 0.039.

VGMRYFHKQQAHFWKPV [RPL28]: the protein stability index by setting is: (pdr5∆) 3.02 ± 0.11; (ubr1∆) 2.83 ± 0.09.

Consider VAKLANWFLEVYASGNP [YML031W/NDC1], for which the protein stability index by setting is: (doa10∆) 2.1 ± 0.069; (pdr5∆) 2.09 ± 0.049; (san1∆) 1.89 ± 0.12; (ubr1∆) 1.12 ± 0.055.

Regarding VDFACCTNLTNRTLYEL [GRR1], the protein stability index was 2.72 ± 0.061 (doa10∆), 2.71 ± 0.061 (pdr5∆), 2.26 ± 0.06 (san1∆) and 2.73 ± 0.044 (ubr1∆).

AHMANPLLRKVVDRESD [PRE4]: the protein stability index (san1∆) came to 1.13 ± 0.22.

As for TRMQRGHRADVGGQFSK [REC8], the protein stability index by setting is: (doa10∆) 2.98 ± 0.13; (pdr5∆) 3.32 ± 0.13; (san1∆) 3.27 ± 0.074; (ubr1∆) 3.39 ± 0.12.

KNATEELLRLANEQLKL [CSN12]: the protein stability index is 3 ± 0.071 (doa10∆), 2.93 ± 0.058 (pdr5∆), 2.89 ± 0.077 (san1∆) and 2.8 ± 0.094 (ubr1∆).
